The series concerns the molecule itself. Description: cryo-EM structure.

B1: human GluN2D, C-terminal domain truncated (M1-P879), Strep-tag II (receptor, UniProt O15399 28-879, looked up)
chain: FPEEAPGPGGAGGPGGGLGGARPLNVALVFSGPAYAAEAARLGPAVAAAVRSPGLDVRPVALVLNGSDPRSLVLQLCDLLSGLRVHGVVFEDDSRAPAVAPILDFLSAQTSLPIVAVHGGAALVLTPKEKGSTFLQLGSSTEQQLQVIFEVLEEYDWTSFVAVTTRAPGHRAFLSYIEVLTDGSLVGWEHRGALTLDPGAGEAVLSAQLRSVSAQIRLLFCAREEAEPVFRAAEEAGLTGSGYVWFMVGPQLAGGGGSGAPGEPPLLPGGAPLPAGLFAVRSAGWRDDLARRVAAGVAVVARGAQALLRDYGFLPELGHDCRAQNRTHRGESLHRYFMNITWDNRDYSFNEDGFLVNPSLVVISLTRDRTWEVVGSWEQQTLRLKYPLWSRYGRFLQPVDDTQHLTVATLEERPFVIVEPADPISGTCIRDSVPCRSQLNRTHSPPPDAPRPEKRCCKGFCIDILKRLAHTIGFSYDLYLVTNGKHGKKIDGVWNGMIGEVFYQRADMAIGSLTINEERSEIVDFSVPFVETGISVMVARSNGTVSPSAFLEPYSPAVWVMMFVMCLTVVAVTVFIFEYLSPVGYNRSLATGKRPGGSTFTIGKSIWLLWALVFNNSVPVENPRGTTSKIMVLVWAFFAVIFLASYTANLAAFMIQEEYVDTVSGLSDRKFQRPQEQYPPLKFGTVPNGSTEKNIRSNYPDMHSYMVRYNQPRVEEALTQLKAGKLDAFIYDAAVLNYMARKDEGCKLVTIGSGKVFATTGYGIALHKGSRWKRPIDLALLQFLGDDEIEMLERLWLSGICHNDKIEVMSSKLDIDNMAGVFYMLLVAMGLSLLVFAWEHLVYWRLRHCLGP
For the protein B1, the binding result is “binds”.

(Values after article doi:10.1101/2022.11.09.514853 (bioRxiv, 2022).)
